The record followed here is paper PMC5827659.

Experiment in all cases: FRET (FIRE system)
The target of assay [1] is FIRE construct Y-TMG-/C-TMG-CC1 L251S R304W, Q13586-1. As to conditions: HEK 293 cells; n=39; parent: est. 0.084; read off a plot.
Assay [2] concerns the target FIRE construct Y-TMG-/C-TMG-CC1 R304K, Q13586-1. The following applies: HEK 293 cells; n=52; parent: est. 0.084; read off a plot.
The target of assay [3] is FIRE construct Y-TMG-/C-TMG-CC1α1α2 L251S R304W, Q13586-1. As to conditions: HEK 293 cells; n=9; parent: est. 0.077; read off a plot.
For assay [4], the target named is FIRE construct Y-TMG-/C-TMG-CC1α1α2 R304K, Q13586-1. The following applies: HEK 293 cells; n=18; parent: est. 0.077; read off a plot.
FIRE construct Y-TMG-/C-TMG-CC1α1α2 R304K, Q13586-1, sequence (Q13586 whole entry R304K, looked up): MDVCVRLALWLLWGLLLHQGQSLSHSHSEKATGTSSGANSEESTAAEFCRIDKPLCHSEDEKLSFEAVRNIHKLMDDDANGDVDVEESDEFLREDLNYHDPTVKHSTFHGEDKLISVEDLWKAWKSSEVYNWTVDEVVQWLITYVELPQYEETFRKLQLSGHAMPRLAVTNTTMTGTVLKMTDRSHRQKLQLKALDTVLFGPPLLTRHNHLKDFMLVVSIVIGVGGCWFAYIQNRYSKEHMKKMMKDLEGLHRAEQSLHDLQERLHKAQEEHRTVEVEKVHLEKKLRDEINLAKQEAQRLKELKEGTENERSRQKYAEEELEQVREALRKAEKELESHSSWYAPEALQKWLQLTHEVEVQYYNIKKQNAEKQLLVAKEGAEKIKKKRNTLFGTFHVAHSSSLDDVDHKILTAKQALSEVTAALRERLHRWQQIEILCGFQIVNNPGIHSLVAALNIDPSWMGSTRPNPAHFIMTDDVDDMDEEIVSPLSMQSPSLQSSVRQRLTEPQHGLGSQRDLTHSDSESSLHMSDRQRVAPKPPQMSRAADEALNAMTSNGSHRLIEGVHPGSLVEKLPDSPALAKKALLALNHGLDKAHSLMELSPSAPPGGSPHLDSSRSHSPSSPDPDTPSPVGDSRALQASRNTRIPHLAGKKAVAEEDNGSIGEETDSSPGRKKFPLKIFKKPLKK

FIRE construct Y-TMG-/C-TMG-CC1α1α2 L251S R304W, Q13586-1, sequence (Q13586 whole entry L251S/R304W, looked up): as the sequence (Q13586 whole entry R304K, looked up) above, with L251S, K304W counted along it
FIRE construct Y-TMG-/C-TMG-CC1 L251S R304W, Q13586-1, sequence (Q13586 whole entry L251S/R304W, looked up): as the sequence (Q13586 whole entry R304K, looked up) above, with L251S, K304W counted along it
FIRE construct Y-TMG-/C-TMG-CC1 R304K, Q13586-1, sequence (Q13586 whole entry R304K, looked up): as the sequence (Q13586 whole entry R304K, looked up) above

In the case of “FIRE construct Y-TMG-/C-TMG-CC1 (STIM1 CC1 233–343) wild type (from UniProt Q13586-1) L251S; R304W”, the response in assay [1] was 0.096 Eapp. Regarding “FIRE construct Y-TMG-/C-TMG-CC1 (STIM1 CC1 233–343) wild type (from UniProt Q13586-1) R304K”, the response in assay [2] stood at 0.074 Eapp. Turning to “FIRE construct Y-TMG-/C-TMG-CC1α1α2 (STIM1 233–309) wild type (from UniProt Q13586-1) L251S; R304W”, the response in assay [3] was found to be 0.091 Eapp. Turning to “FIRE construct Y-TMG-/C-TMG-CC1α1α2 (STIM1 233–309) wild type (from UniProt Q13586-1) R304K”, the response in assay [4] was determined as 0.06 Eapp.
